In the supplement of paper PMC9112550, “Optimization of the antimicrobial peptide Bac7 by deep mutational scanning” (BMC Biology, 2022):

System: Escherichia coli TOP10
Assay: shrunken log2 fold change of peptide-encoding DNA abundance (4.5 h post-induction vs induction); higher = less antimicrobial activity (less host growth inhibition)
Conditions: time post-induction: 4.5 h; library: site-saturation at positions 5, 18, 19, 20
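Also: peptides expressed intracellularly from a pBAD plasmid library in pooled LB shake-flask culture, induced with 0.3% L-arabinose, DNA abundance read by NGS, three biological replicates, DESeq2 with apeglm shrinkage.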

RRIRNRPPRLPRPRPRPYMFPRP
shrunken log2 fold change: -0.216

RRIRNRPPRLPRPRPRPYMTPRP
shrunken log2 fold change: -0.509

RRIRNRPPRLPRPRPRPYMYPRP
shrunken log2 fold change: 0.0369

RRIRNRPPRLPRPRPRPYNCPRP
shrunken log2 fold change: -0.385

RRIRNRPPRLPRPRPRPYPHPRP
shrunken log2 fold change: -0.0269

RRIRNRPPRLPRPRPRPYQHPRP
shrunken log2 fold change: -0.549

RRIRNRPPRLPRPRPRPYRDPRP
shrunken log2 fold change: -0.0123

RRIRNRPPRLPRPRPRPYSKPRP
shrunken log2 fold change: -0.926

RRIRNRPPRLPRPRPRPYVQPRP
shrunken log2 fold change: -0.0341

RRIRNRPPRLPRPRPRPYWFPRP
shrunken log2 fold change: -0.124

RRIRNRPPRLPRPRPRPYWYPRP
shrunken log2 fold change: -0.177

RRIRNRPPRLPRPRPRPYYRPRP
shrunken log2 fold change: 0.0545

RRIRPRPPRLPRPRPRPADDPRP
shrunken log2 fold change: 0.118

RRIRPRPPRLPRPRPRPADMPRP
shrunken log2 fold change: 0.0113

RRIRPRPPRLPRPRPRPAEAPRP
shrunken log2 fold change: 0.103

RRIRPRPPRLPRPRPRPAFAPRP
shrunken log2 fold change: 0.374

RRIRPRPPRLPRPRPRPAFHPRP
shrunken log2 fold change: 0.189

RRIRPRPPRLPRPRPRPAHDPRP
shrunken log2 fold change: 6.73e-05

RRIRPRPPRLPRPRPRPAHLPRP
shrunken log2 fold change: 0.317

RRIRPRPPRLPRPRPRPAIIPRP
shrunken log2 fold change: -0.112

RRIRPRPPRLPRPRPRPAKEPRP
shrunken log2 fold change: 0.0354

RRIRPRPPRLPRPRPRPAKHPRP
shrunken log2 fold change: -0.023

RRIRPRPPRLPRPRPRPAKLPRP
shrunken log2 fold change: 0.0398

RRIRPRPPRLPRPRPRPALKPRP
shrunken log2 fold change: 0.128

RRIRPRPPRLPRPRPRPALQPRP
shrunken log2 fold change: 0.0721

RRIRPRPPRLPRPRPRPAMIPRP
shrunken log2 fold change: -0.26

RRIRPRPPRLPRPRPRPAMTPRP
shrunken log2 fold change: -0.085

RRIRPRPPRLPRPRPRPANEPRP
shrunken log2 fold change: 0.18

RRIRPRPPRLPRPRPRPANGPRP
shrunken log2 fold change: 0.0748

RRIRPRPPRLPRPRPRPANRPRP
shrunken log2 fold change: -0.125

RRIRPRPPRLPRPRPRPANTPRP
shrunken log2 fold change: -0.224

RRIRPRPPRLPRPRPRPAPGPRP
shrunken log2 fold change: 0.645

RRIRPRPPRLPRPRPRPAPLPRP
shrunken log2 fold change: 0.407

RRIRPRPPRLPRPRPRPAQLPRP
shrunken log2 fold change: 0.237

RRIRPRPPRLPRPRPRPARFPRP
shrunken log2 fold change: 0.383

RRIRPRPPRLPRPRPRPATFPRP
shrunken log2 fold change: -0.305

RRIRPRPPRLPRPRPRPAWTPRP
shrunken log2 fold change: 0.492

RRIRPRPPRLPRPRPRPCADPRP
shrunken log2 fold change: 0.213

RRIRPRPPRLPRPRPRPCAQPRP
shrunken log2 fold change: -0.119

RRIRPRPPRLPRPRPRPCCDPRP
shrunken log2 fold change: 0.249

RRIRPRPPRLPRPRPRPCCGPRP
shrunken log2 fold change: -0.0386

RRIRPRPPRLPRPRPRPCDGPRP
shrunken log2 fold change: 0.0661

RRIRPRPPRLPRPRPRPCEAPRP
shrunken log2 fold change: 0.0756

RRIRPRPPRLPRPRPRPCEVPRP
shrunken log2 fold change: 0.00799

RRIRPRPPRLPRPRPRPCFLPRP
shrunken log2 fold change: -0.382

RRIRPRPPRLPRPRPRPCFVPRP
shrunken log2 fold change: -0.18

RRIRPRPPRLPRPRPRPCGEPRP
shrunken log2 fold change: -0.0188

RRIRPRPPRLPRPRPRPCGQPRP
shrunken log2 fold change: 0.311

RRIRPRPPRLPRPRPRPCHQPRP
shrunken log2 fold change: 0.0122

RRIRPRPPRLPRPRPRPCIIPRP
shrunken log2 fold change: -0.438

RRIRPRPPRLPRPRPRPCIYPRP
shrunken log2 fold change: -0.536

RRIRPRPPRLPRPRPRPCMSPRP
shrunken log2 fold change: -0.0701

RRIRPRPPRLPRPRPRPCPEPRP
shrunken log2 fold change: -0.123

RRIRPRPPRLPRPRPRPCQFPRP
shrunken log2 fold change: -0.246

RRIRPRPPRLPRPRPRPCQHPRP
shrunken log2 fold change: -0.161

RRIRPRPPRLPRPRPRPCQKPRP
shrunken log2 fold change: -0.00783

RRIRPRPPRLPRPRPRPCSIPRP
shrunken log2 fold change: -0.232

RRIRPRPPRLPRPRPRPCTKPRP
shrunken log2 fold change: -0.244

RRIRPRPPRLPRPRPRPCTMPRP
shrunken log2 fold change: -0.191

RRIRPRPPRLPRPRPRPCWNPRP
shrunken log2 fold change: -0.0418

RRIRPRPPRLPRPRPRPCYLPRP
shrunken log2 fold change: -0.958

RRIRPRPPRLPRPRPRPDCDPRP
shrunken log2 fold change: 0.0888

RRIRPRPPRLPRPRPRPDDSPRP
shrunken log2 fold change: 0.0427

RRIRPRPPRLPRPRPRPDETPRP
shrunken log2 fold change: -0.088

RRIRPRPPRLPRPRPRPDEWPRP
shrunken log2 fold change: 0.0186

RRIRPRPPRLPRPRPRPDFYPRP
shrunken log2 fold change: -0.156

RRIRPRPPRLPRPRPRPDGLPRP
shrunken log2 fold change: -0.117

RRIRPRPPRLPRPRPRPDGMPRP
shrunken log2 fold change: -0.0319

RRIRPRPPRLPRPRPRPDGPPRP
shrunken log2 fold change: -0.101

RRIRPRPPRLPRPRPRPDGWPRP
shrunken log2 fold change: 0.354

RRIRPRPPRLPRPRPRPDIDPRP
shrunken log2 fold change: -0.144

RRIRPRPPRLPRPRPRPDMAPRP
shrunken log2 fold change: -0.119

RRIRPRPPRLPRPRPRPDMSPRP
shrunken log2 fold change: -0.303

RRIRPRPPRLPRPRPRPDPCPRP
shrunken log2 fold change: -0.0908

RRIRPRPPRLPRPRPRPDRFPRP
shrunken log2 fold change: -0.137

RRIRPRPPRLPRPRPRPDSWPRP
shrunken log2 fold change: 0.392

RRIRPRPPRLPRPRPRPDTGPRP
shrunken log2 fold change: 0.128

RRIRPRPPRLPRPRPRPDTKPRP
shrunken log2 fold change: -0.0208

RRIRPRPPRLPRPRPRPDTPPRP
shrunken log2 fold change: 0.0412

RRIRPRPPRLPRPRPRPDYKPRP
shrunken log2 fold change: -0.66

RRIRPRPPRLPRPRPRPDYLPRP
shrunken log2 fold change: -0.259

RRIRPRPPRLPRPRPRPEADPRP
shrunken log2 fold change: 0.0865

RRIRPRPPRLPRPRPRPEAIPRP
shrunken log2 fold change: 0.102

RRIRPRPPRLPRPRPRPEDMPRP
shrunken log2 fold change: -0.927

RRIRPRPPRLPRPRPRPEDTPRP
shrunken log2 fold change: 0.174

RRIRPRPPRLPRPRPRPEDVPRP
shrunken log2 fold change: -0.0168

RRIRPRPPRLPRPRPRPEEGPRP
shrunken log2 fold change: -0.0155

RRIRPRPPRLPRPRPRPEGIPRP
shrunken log2 fold change: -0.00608

RRIRPRPPRLPRPRPRPEGKPRP
shrunken log2 fold change: -0.124

RRIRPRPPRLPRPRPRPEHMPRP
shrunken log2 fold change: -0.0558

RRIRPRPPRLPRPRPRPEHQPRP
shrunken log2 fold change: -0.0202

RRIRPRPPRLPRPRPRPEKDPRP
shrunken log2 fold change: -0.0428

RRIRPRPPRLPRPRPRPEKHPRP
shrunken log2 fold change: 0.418

RRIRPRPPRLPRPRPRPEKIPRP
shrunken log2 fold change: -0.0804

RRIRPRPPRLPRPRPRPEKTPRP
shrunken log2 fold change: 0.037

RRIRPRPPRLPRPRPRPELHPRP
shrunken log2 fold change: 0.0832

RRIRPRPPRLPRPRPRPELTPRP
shrunken log2 fold change: 0.537

RRIRPRPPRLPRPRPRPEPRPRP
shrunken log2 fold change: 1.05

RRIRPRPPRLPRPRPRPEPVPRP
shrunken log2 fold change: 0.12

RRIRPRPPRLPRPRPRPERPPRP
shrunken log2 fold change: 0.309

RRIRPRPPRLPRPRPRPESFPRP
shrunken log2 fold change: -0.216

RRIRPRPPRLPRPRPRPESYPRP
shrunken log2 fold change: -0.00116

RRIRPRPPRLPRPRPRPETGPRP
shrunken log2 fold change: -0.0114

RRIRPRPPRLPRPRPRPETTPRP
shrunken log2 fold change: -0.0108

RRIRPRPPRLPRPRPRPETVPRP
shrunken log2 fold change: 0.207

RRIRPRPPRLPRPRPRPEVCPRP
shrunken log2 fold change: 0.138

RRIRPRPPRLPRPRPRPEVWPRP
shrunken log2 fold change: 0.5

RRIRPRPPRLPRPRPRPEVYPRP
shrunken log2 fold change: 0.0493

RRIRPRPPRLPRPRPRPEWAPRP
shrunken log2 fold change: 2.06
